Key:
alpha-thrombin = alpha-thrombin (bovine, UniProt P00735;P00735 318-366;367-625); assay: ITC
human thrombin = human thrombin (human, UniProt P00734;P00734 328-363;364-622); assay: ITC

For GGTTGGTGTGGTTGG (structured_DNA) [thrombin-binding DNA aptamer (15-mer, Bock et al.)], the Kd (alpha-thrombin) was 111 nM and the binding result (human thrombin) was “binds”.

— paper PMC3107735
